Sequences and labels used below:
B1: human CHIP-TPR (residues 21-154) [human] / biotin-… [modified: biotin, printed before the first residue (biotin-…); biotin, printed before the first residue (biotin-…)] [human] (parent)
chain 1: EKSPSAQELKEQGNRLFVGRKYPEAAACYGRAITRNPLVAVYYTNRALCYLKMQQHEQALADCRRALELDGQSVKAHFFLGQCQLEMESYDEAIANLQRAYSLAKEQRLNFGDDIPSALRIAKKKRWNSIEERR
chain 2: GSGSGPTIEEVD

The variants in this experiment derive from B1. The experiment in a line: biolayer interferometry. Conditions: with biotin-… [modified: biotin, read off a plot.
As to chain 1 EKSPSAQELKEQGNRLFVGRKYPEAAACYGRAITRNPLVAVYYTNRALCYLKMQQHEQALADCRRALELDGQSVKAHFFLGQCQLEMESYDEAIANLQRAYSLAKEQRLNFNDDIPSALRIAKKKRWNSIEERR, the off-rate constant (koff) was 0.0031 s⁻¹ and the kon amounted to 5800 M⁻¹ s⁻¹.
